# Results taken from the supplement of paper PMC12667976.
# ± gives the standard error.
# B1: library; numbered along this chain (parent)
# chain: MATDAALRRLLRLHRTEIAVAVDSAFPLLHALADHDVVPEDKFQETLHLKEKEGCPQAFHALLSWLLTQDSTAILDFWRVLFKDYNLERYGRLQPILDSFPKDVDLSQPRKGRKPPAVPKALVPPPRLPTKRKASEEARAAAPAALTPRGTASPGSQLKAKPPKKPESSAEQQRLPLGNGIQTMSASVQRAVAMSSGDVPGARGAVEGILIQQVFESGGSKKCIQVGGEFYTPSKFEDSGSGKNKARSSSGPKPLVRAKGAQGAAPGGGEARLGQQGSVPAPLALPSDPQLHQKNEDECAVCRDGGELICCDGCPRAFHLACLSPPLREIPSGTWRCSSCLQATVQEVQPRAEEPRPQEPPVETPLPPGLRSAGEEVRGPPGEPLAGMDTTLVYKHLPAPPSAAPLPGLDSSALHPLLCVGPEGQQNLAPGARCGVCGDGTDVLRCTHCAAAFHWRCHFPAGTSRPGTGLRCRSCSGDVTPAPVEGVLAPSPARLAPGPAKDDTASHEPALHRDDLESLLSEHTFDGILQWAIQSMARPAAPFPS
# Variants of: B1
# Experiment: AIRE transcriptional activation functional score (insulin promoter-GFP; nonsense median 0, synonymous median 1) (normalised score); higher = higher AIRE activity (more reporter activation)
# Details: with insulin promoter-GFP reporter in HEK293
# Protocol: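 Deep mutational scan of full-length human AIRE (codon-optimized cDNA, DT-POPCode NNN libraries over three regions) integrated at a Bxb1 landing pad in HEK293 cells carrying an insulin core promoter-GFP reporter at a Flp-In site. Cells were sorted for the top 10% GFP about 14 days after transfection. Variant frequency log-ratios (select vs non-select, TileSeq) were rescaled so that the nonsense median is 0 and the synonymous median is 1, then averaged over biological replicates.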
row,Variant,AIRE transcriptional activation functional score
1,S249H,0.402 ± 0.24
2,S249L,0.67 ± 0.15
3,S249R,-0.21 ± 0.29
4,S249V,1.12 ± 0.18
5,S249N,0.548 ± 0.067
6,S249Q,0.961 ± 0.049
7,S249F,0.707 ± 0.2
8,S249M,1.28 ± 0.083
9,S249A,1.07 ± 0.25
10,S249W,1.81 ± 0.072
11,S249P,0.451 ± 0.43
12,S249T,0.256 ± 0.25
13,S249Y,0.973 ± 0.036
14,S249G,1.22 ± 0.26
15,S249D,0.114 ± 0.48
16,S249C,1.33 ± 0.2
17,P252C,0.763 ± 0.089
18,P252Q,0.904 ± 0.34
19,P252W,0.608 ± 0.056
20,P252H,0.544 ± 0.15
21,P252N,1.41 ± 0.035
22,P252D,0.862 ± 0.034
23,P252T,0.961 ± 0.079
24,P252I,0.937 ± 0.16

row,Variant,AIRE transcriptional activation functional score
1,P252L,1.15 ± 0.28
2,P252G,0.0827 ± 0.056
3,P252M,1.88 ± 0.082
4,P252A,1.02 ± 0.24
5,P252R,0.567 ± 0.33
6,P252S,1.03 ± 0.18
7,P252Y,0.649 ± 0.21
8,P252V,1.35 ± 0.25
9,P252F,0.977 ± 0.083
10,S241R,0.436 ± 0.41
11,S241Q,0.992 ± 0.3
12,S241W,0.868 ± 0.021
13,S241Y,1.12 ± 0.024
14,S241T,1.11 ± 0.25
15,S241V,0.868 ± 0.2
16,A258E,1.13 ± 0.18
17,A258H,1.05 ± 0.11
18,A258S,0.657 ± 0.26
19,A258D,0.387 ± 0.22
20,A258Q,0.586 ± 0.085
21,A258I,0.643 ± 0.33
22,A258G,0.943 ± 0.19
23,A258T,0.978 ± 0.33
24,A258V,1.36 ± 0.27

row,Variant,AIRE transcriptional activation functional score
1,A258L,0.814 ± 0.13
2,A258C,1.18 ± 0.19
3,A258P,1.23 ± 0.13
4,A258R,0.0043 ± 0.35
5,A258M,0.409 ± 0.07
6,A258W,1.05 ± 0.052
7,A258F,1.19 ± 0.16
8,N244R,0.573 ± 0.29
9,N244H,0.405 ± 0.17
10,N244K,-0.184 ± 0.41
11,N244G,0.138 ± 0.71
12,N244Y,1.25 ± 0.29
13,N244E,0.249 ± 0.19
14,N244A,0.269 ± 0.054
15,N244T,1.14 ± 0.11
16,N244L,0.301 ± 0.25
17,N244M,-0.168 ± 0.073
18,N244F,1.08 ± 0.084
19,N244D,1.1 ± 0.091
20,N244V,0.206 ± 0.086
21,N244C,0.374 ± 0.65
22,N244Q,1.19 ± 0.12
23,N244I,1.07 ± 1.1
24,N244S,1.3 ± 0.19

row,Variant,AIRE transcriptional activation functional score
1,G251D,1.2 ± 0.26
2,G251A,0.845 ± 0.12
3,G251S,0.796 ± 0.22
4,G251M,0.603 ± 0.14
5,G251R,0.585 ± 0.39
6,G251W,1.36 ± 0.093
7,G251C,0.932 ± 0.18
8,G251E,1.44 ± 0.14
9,G251Y,1.42 ± 0.24
10,G251I,1.2 ± 0.27
11,G251L,1.21 ± 0.22
12,G251Q,0.448 ± 0.19
13,G251F,1.2 ± 0.13
14,G251P,-0.0792 ± 0.35
15,G251T,1.09 ± 0.15
16,G251N,-0.159 ± 0.13
17,G251V,1.22 ± 0.28
18,G251K,1.05 ± 0.051
19,G251H,1.02 ± 0.059
20,G260D,0.772 ± 0.12
21,G260C,1.01 ± 0.12
22,G260A,0.8 ± 0.44
23,G260E,1.03 ± 0.07
24,S248R,0.215 ± 0.44

row,Variant,AIRE transcriptional activation functional score
1,S248A,0.947 ± 0.56
2,S248I,1.16 ± 0.17
3,S248C,1.03 ± 0.18
4,S248D,1.25 ± 0.58
5,S248V,0.819 ± 0.23
6,S248T,0.975 ± 0.46
7,S248Q,0.368 ± 0.26
8,S248W,1.01 ± 0.026
9,S248M,1.01 ± 0.041
10,S248G,1.13 ± 0.26
11,S248N,0.778 ± 0.22
12,S248P,1.33 ± 0.28
13,S248K,0.517 ± 0.079
14,S248L,1.11 ± 0.31
15,S248Y,1.07 ± 0.27
16,S248F,1.09 ± 0.22
17,S248E,0.474 ± 0.14
18,V256L,0.974 ± 0.23
19,V256F,1.33 ± 0.23
20,V256K,0.102 ± 0.38
21,V256M,0.911 ± 0.082
22,V256W,1.37 ± 0.027
23,V256A,1.16 ± 0.34
24,V256C,0.771 ± 0.33

row,Variant,AIRE transcriptional activation functional score
1,V256P,0.878 ± 0.24
2,V256Q,0.671 ± 0.27
3,V256E,0.8 ± 0.15
4,V256D,0.705 ± 0.26
5,V256T,0.8 ± 0.3
6,V256S,1.07 ± 0.23
7,V256H,0.851 ± 0.23
8,V256G,1.05 ± 0.24
9,V256R,0.207 ± 0.45
10,V256Y,1.39 ± 0.17
11,V256I,0.599 ± 0.084
12,V256N,0.685 ± 0.49
13,P254W,1.07 ± 0.05
14,P254T,0.737 ± 0.27
15,P254S,0.995 ± 0.39
16,P254A,0.885 ± 0.26
17,P254D,0.547 ± 0.13
18,P254E,0.818 ± 0.2
19,P254H,0.946 ± 0.19
20,P254C,1.24 ± 0.51
21,P254I,0.86 ± 0.25
22,P254M,0.826 ± 0.054
23,P254V,1.27 ± 0.26
24,P254L,1.01 ± 0.3

row,Variant,AIRE transcriptional activation functional score
1,P254K,0.683 ± 0.3
2,P254F,0.266 ± 0.23
3,P254G,0.342 ± 0.34
4,P254N,-0.115 ± 0.07
5,P254R,0.606 ± 0.37
6,P254Q,1.2 ± 0.15
7,P254Y,1.28 ± 0.062
8,G242A,1.19 ± 0.18
9,G242I,-0.56 ± 0.23
10,G242S,0.694 ± 0.36
11,G242Q,0.988 ± 0.47
12,G242K,0.747 ± 0.2
13,G242L,1.13 ± 0.19
14,G242D,0.951 ± 0.22
15,G242C,1.06 ± 0.092
16,G242R,0.611 ± 0.3
17,G242W,0.936 ± 0.021
18,G242V,1.04 ± 0.1
19,G242E,0.0818 ± 0.052
20,G242T,-0.775 ± 0.4
21,G242F,1.23 ± 0.046
22,G242P,0.412 ± 0.71
23,G242Y,1.6 ± 0.054
